other: molecular mass (MALS) and stoichiometry N data for two substances are collected here from publication PMC8562663.

The target of experiment [1] is abMltA triple mutant (D151K, Y162K or Y162W, E164K). Kind of experiment: SEC-MALS. To be noted: read off a plot.
The target of experiment [2] is membrane-bound lytic murein transglycosylase A (MltA) from Acinetobacter baumannii, N-terminally truncated (Gly23-Asn388), wild type (Acinetobacter baumannii). Kind of experiment: SEC-MALS; Ni-NTA-purified protein on Superdex 200 10/300, 20 mM Tris-HCl pH 8.0, 150 mM NaCl, 0.3 ml/min, 25°C; DAWN TREOS detector; self-association. In general terms: SEC sorts molecules by how far they enter the pores of the column.

The substance “membrane-bound lytic murein transglycosylase A (MltA) from Acinetobacter baumannii, N-terminally truncated (Gly23-Asn388), wild type D151K; Y162W; E164K” yielded an other: molecular mass (MALS) in experiment [1] of 45000 Da.
For “membrane-bound lytic murein transglycosylase A (MltA) from Acinetobacter baumannii, N-terminally truncated (Gly23-Asn388), wild type (enzyme)”, the stoichiometry N in experiment [2] was found to be 2.

Usually stoichiometry N stands for a count of units in the complex or per binding partner.
